These are literature values, as cited in publication PMC9280966 (ACS Omega, 2022).

This data set deals with RHEB (Homo sapiens, UniProt Q15382). The note with it: read-out: KD with RHEB (BLI); BLI analysis, earlier study; ref [12].
Sequence of RHEB (Q15382 whole entry): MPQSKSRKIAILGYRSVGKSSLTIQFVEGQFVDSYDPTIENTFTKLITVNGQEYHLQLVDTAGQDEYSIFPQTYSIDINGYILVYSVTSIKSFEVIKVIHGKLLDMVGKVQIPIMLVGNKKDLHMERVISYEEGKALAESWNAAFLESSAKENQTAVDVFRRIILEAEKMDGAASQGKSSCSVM

Turning to “mTOR^ΔN: N-heat domain of mTOR (aa 60–167), 6xHis tagged, ∼13 kDa”, the Kd (as a rule, a measure of binding affinity in units of concentration) is about 6.5 µM.
